Reference: patent CN112851810A (BEIJING GUANGWEI BIOTECHNOLOGY CO LTD, dated 2021)

T1: 人CD20 (human CD20) (human, UniProt P11836 1-297, limits assumed)
T1 construct: also called 人CD20蛋白; 抗原
T1 sequence (looked up): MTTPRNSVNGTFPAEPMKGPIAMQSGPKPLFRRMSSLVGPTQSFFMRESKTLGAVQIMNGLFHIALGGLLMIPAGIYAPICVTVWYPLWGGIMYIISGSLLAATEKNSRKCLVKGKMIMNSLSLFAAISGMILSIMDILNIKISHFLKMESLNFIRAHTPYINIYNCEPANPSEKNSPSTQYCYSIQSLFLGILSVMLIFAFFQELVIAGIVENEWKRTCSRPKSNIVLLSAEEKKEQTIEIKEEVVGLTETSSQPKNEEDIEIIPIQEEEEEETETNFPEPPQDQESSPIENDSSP

B1: Rituximab (antibody, V domains shown)
VH: QVQLQQPGAELVKPGASVKMSCKASGYTFTSYNMHWVKQTPGRGLEWIGAIYPGNGDTSYNQKFKGKATLTADKSSSTAYMQLSSLTSEDSAVYYCARSTYYGGDWYFNVWGAGTTVTVSA
VL: QIVLSQSPAILSASPGEKVTMTCRASSSVSYIHWFQQKPGSSPKPWIYATSNLASGVPVRFSGSGSGTSYSLTISRVEAEDAATYYCQQWTSNPPTFGGGTKLEIK
B2: h12H7-IgG1 (antibody, V domains shown)
VH: QVQLVQSGAEVKKPGASVKVSCKASDYTFTSYAGKWVRQAPGQGLEWIGAIPTKGNDTSYNQFLKGRVTMTADTSTSTVYMELSSLRSEDTAVYYCAKGIDGCNFDYWGQGTTVTVSS
VL: DIQMTQSPSSVSASVGDRVTITCKASQRVATGVAWYQQKPGKAPKALIYSAIGNRTGVPSRFSGSGSGTDFTLTISSLQPEDFATYYCQQASKIDAYPTFGQGTKLEIK

Target: T1, 人CD20 (human CD20)
Assay: SPR (CM5 chip, antibody captured by anti-human capture antibody, antigen as analyte from 10 nM)

Binder | Kd [nM] | koff [s⁻¹] | kon [M⁻¹ s⁻¹]
B1 | 5.46 | 0.000345 | 63100
B2 | 0.307 | 4.21e-05 | 137000
